Results published in patent publication US20110166062A1 (INDIANA UNIVERSITY RESEARCH AND TECHNOLOGY, published 2011).
Bridges are numbered along the chain shown (N, C = ends). Where no end group is shown, it is not given here. [ ]: non-standard residue; d: D form. Aib = CC(C)(N)C(=O)O

T1: GIP receptor (UniProt P48546 22-466)
T1 sequence (looked up): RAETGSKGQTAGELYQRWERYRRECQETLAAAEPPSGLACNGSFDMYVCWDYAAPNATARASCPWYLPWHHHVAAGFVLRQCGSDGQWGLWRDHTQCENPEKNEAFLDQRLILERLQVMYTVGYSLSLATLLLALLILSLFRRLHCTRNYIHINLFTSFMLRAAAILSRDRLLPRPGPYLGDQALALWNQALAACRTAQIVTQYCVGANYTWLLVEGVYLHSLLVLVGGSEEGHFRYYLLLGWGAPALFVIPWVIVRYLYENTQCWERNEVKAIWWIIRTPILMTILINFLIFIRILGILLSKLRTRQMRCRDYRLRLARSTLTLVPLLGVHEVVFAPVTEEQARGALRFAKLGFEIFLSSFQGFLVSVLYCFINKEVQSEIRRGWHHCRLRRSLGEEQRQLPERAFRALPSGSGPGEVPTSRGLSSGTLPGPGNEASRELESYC

B1: mt-62 (peptide)
peptide: HSQGTFTSDYSIYLDEIHQKEFIAWLMNT-NH2
modifications: lactam 16-20; N-terminus assumed
SMILES: CC[C@H](C)[C@H](NC(=O)[C@H](Cc1ccccc1)NC(=O)[C@H](CCC(=O)O)NC(=O)[C@@H]1CCCCNC(=O)CC[C@H](NC(=O)[C@H](CC(=O)O)NC(=O)[C@H](CC(C)C)NC(=O)[C@H](Cc2ccc(O)cc2)NC(=O)[C@@H](NC(=O)[C@H](CO)NC(=O)[C@H](Cc2ccc(O)cc2)NC(=O)[C@H](CC(=O)O)NC(=O)[C@H](CO)NC(=O)[C@@H](NC(=O)[C@H](Cc2ccccc2)NC(=O)[C@@H](NC(=O)CNC(=O)[C@H](CCC(N)=O)NC(=O)[C@H](CO)NC(=O)[C@@H](N)Cc2c[nH]cn2)[C@@H](C)O)[C@@H](C)O)[C@@H](C)CC)C(=O)N[C@@H]([C@@H](C)CC)C(=O)N[C@@H](Cc2c[nH]cn2)C(=O)N[C@@H](CCC(N)=O)C(=O)N1)C(=O)N[C@@H](C)C(=O)N[C@@H](Cc1c[nH]c2ccccc12)C(=O)N[C@@H](CC(C)C)C(=O)N[C@@H](CCSC)C(=O)N[C@@H](CC(N)=O)C(=O)N[C@H](C(N)=O)[C@@H](C)O
B2: mt-93 (peptide)
peptide: HSQGTFTSDYSIYLDEKHQKEFIAWLLAQ-NH2
modifications: lactam 16-20, 17-21; N-terminus assumed
SMILES: CC[C@H](C)[C@H](NC(=O)[C@H](Cc1ccccc1)NC(=O)[C@@H]1CCC(=O)NCCCC[C@@H]2NC(=O)[C@@H](NC(=O)[C@H](CC(=O)O)NC(=O)[C@H](CC(C)C)NC(=O)[C@H](Cc3ccc(O)cc3)NC(=O)[C@@H](NC(=O)[C@H](CO)NC(=O)[C@H](Cc3ccc(O)cc3)NC(=O)[C@H](CC(=O)O)NC(=O)[C@H](CO)NC(=O)[C@@H](NC(=O)[C@H](Cc3ccccc3)NC(=O)[C@@H](NC(=O)CNC(=O)[C@H](CCC(N)=O)NC(=O)[C@H](CO)NC(=O)[C@@H](N)Cc3c[nH]cn3)[C@@H](C)O)[C@@H](C)O)[C@@H](C)CC)CCC(=O)NCCCC[C@H](NC(=O)[C@H](CCC(N)=O)NC(=O)[C@H](Cc3c[nH]cn3)NC2=O)C(=O)N1)C(=O)N[C@@H](C)C(=O)N[C@@H](Cc1c[nH]c2ccccc12)C(=O)N[C@@H](CC(C)C)C(=O)N[C@@H](CC(C)C)C(=O)N[C@@H](C)C(=O)N[C@@H](CCC(N)=O)C(N)=O
B3: mt-151 (peptide)
peptide: YSQGTFTSDYSKYLDEQAAKEFIAWLLAGGPSSGAPPPS-NH2
modifications: lactam 16-20; N-terminus assumed
SMILES: CC[C@H](C)[C@H](NC(=O)[C@H](Cc1ccccc1)NC(=O)[C@H](CCC(=O)O)NC(=O)[C@@H]1CCCCNC(=O)CC[C@H](NC(=O)[C@H](CC(=O)O)NC(=O)[C@H](CC(C)C)NC(=O)[C@H](Cc2ccc(O)cc2)NC(=O)[C@H](CCCCN)NC(=O)[C@H](CO)NC(=O)[C@H](Cc2ccc(O)cc2)NC(=O)[C@H](CC(=O)O)NC(=O)[C@H](CO)NC(=O)[C@@H](NC(=O)[C@H](Cc2ccccc2)NC(=O)[C@@H](NC(=O)CNC(=O)[C@H](CCC(N)=O)NC(=O)[C@H](CO)NC(=O)[C@@H](N)Cc2ccc(O)cc2)[C@@H](C)O)[C@@H](C)O)C(=O)N[C@@H](CCC(N)=O)C(=O)N[C@@H](C)C(=O)N[C@@H](C)C(=O)N1)C(=O)N[C@@H](C)C(=O)N[C@@H](Cc1c[nH]c2ccccc12)C(=O)N[C@@H](CC(C)C)C(=O)N[C@@H](CC(C)C)C(=O)N[C@@H](C)C(=O)NCC(=O)NCC(=O)N1CCC[C@H]1C(=O)N[C@@H](CO)C(=O)N[C@@H](CO)C(=O)NCC(=O)N[C@@H](C)C(=O)N1CCC[C@H]1C(=O)N1CCC[C@H]1C(=O)N1CCC[C@H]1C(=O)N[C@@H](CO)C(N)=O
B4: mt-95 (peptide)
peptide: HAEGTFISDYSIAMDEIHQKDFVNWLLAQ-NH2
modifications: lactam 16-20; N-terminus assumed
SMILES: CC[C@H](C)[C@H](NC(=O)[C@H](CO)NC(=O)[C@H](Cc1ccc(O)cc1)NC(=O)[C@H](CC(=O)O)NC(=O)[C@H](CO)NC(=O)[C@@H](NC(=O)[C@H](Cc1ccccc1)NC(=O)[C@@H](NC(=O)CNC(=O)[C@H](CCC(=O)O)NC(=O)[C@H](C)NC(=O)[C@@H](N)Cc1c[nH]cn1)[C@@H](C)O)[C@@H](C)CC)C(=O)N[C@@H](C)C(=O)N[C@@H](CCSC)C(=O)N[C@@H](CC(=O)O)C(=O)N[C@H]1CCC(=O)NCCCC[C@@H](C(=O)N[C@@H](CC(=O)O)C(=O)N[C@@H](Cc2ccccc2)C(=O)N[C@H](C(=O)N[C@@H](CC(N)=O)C(=O)N[C@@H](Cc2c[nH]c3ccccc23)C(=O)N[C@@H](CC(C)C)C(=O)N[C@@H](CC(C)C)C(=O)N[C@@H](C)C(=O)N[C@@H](CCC(N)=O)C(N)=O)C(C)C)NC(=O)[C@H](CCC(N)=O)NC(=O)[C@H](Cc2c[nH]cn2)NC(=O)[C@H]([C@@H](C)CC)NC1=O
B5: mt-146 (peptide)
peptide: YAQGTFISDYSKYLDEQAAKEFVNWLLAGGPSSGAPPPS-NH2
modifications: lactam 16-20; N-terminus assumed
SMILES: CC[C@H](C)[C@H](NC(=O)[C@H](Cc1ccccc1)NC(=O)[C@@H](NC(=O)CNC(=O)[C@H](CCC(N)=O)NC(=O)[C@H](C)NC(=O)[C@@H](N)Cc1ccc(O)cc1)[C@@H](C)O)C(=O)N[C@@H](CO)C(=O)N[C@@H](CC(=O)O)C(=O)N[C@@H](Cc1ccc(O)cc1)C(=O)N[C@@H](CO)C(=O)N[C@@H](CCCCN)C(=O)N[C@@H](Cc1ccc(O)cc1)C(=O)N[C@@H](CC(C)C)C(=O)N[C@@H](CC(=O)O)C(=O)N[C@H]1CCC(=O)NCCCC[C@@H](C(=O)N[C@@H](CCC(=O)O)C(=O)N[C@@H](Cc2ccccc2)C(=O)N[C@H](C(=O)N[C@@H](CC(N)=O)C(=O)N[C@@H](Cc2c[nH]c3ccccc23)C(=O)N[C@@H](CC(C)C)C(=O)N[C@@H](CC(C)C)C(=O)N[C@@H](C)C(=O)NCC(=O)NCC(=O)N2CCC[C@H]2C(=O)N[C@@H](CO)C(=O)N[C@@H](CO)C(=O)NCC(=O)N[C@@H](C)C(=O)N2CCC[C@H]2C(=O)N2CCC[C@H]2C(=O)N2CCC[C@H]2C(=O)N[C@@H](CO)C(N)=O)C(C)C)NC(=O)[C@H](C)NC(=O)[C@H](C)NC(=O)[C@H](CCC(N)=O)NC1=O
B6: mt-155 (peptide)
peptide: YSQGTFTSDYSKYLDEQAAKEFVNWLLAGGPSSGAPPPS-NH2
modifications: lactam 12-16; N-terminus assumed
SMILES: CC(C)C[C@H](NC(=O)[C@H](CC(C)C)NC(=O)[C@H](Cc1c[nH]c2ccccc12)NC(=O)[C@H](CC(N)=O)NC(=O)[C@@H](NC(=O)[C@H](Cc1ccccc1)NC(=O)[C@H](CCC(=O)O)NC(=O)[C@H](CCCCN)NC(=O)[C@H](C)NC(=O)[C@H](C)NC(=O)[C@H](CCC(N)=O)NC(=O)[C@@H]1CCC(=O)NCCCC[C@H](NC(=O)[C@H](CO)NC(=O)[C@H](Cc2ccc(O)cc2)NC(=O)[C@H](CC(=O)O)NC(=O)[C@H](CO)NC(=O)[C@@H](NC(=O)[C@H](Cc2ccccc2)NC(=O)[C@@H](NC(=O)CNC(=O)[C@H](CCC(N)=O)NC(=O)[C@H](CO)NC(=O)[C@@H](N)Cc2ccc(O)cc2)[C@@H](C)O)[C@@H](C)O)C(=O)N[C@@H](Cc2ccc(O)cc2)C(=O)N[C@@H](CC(C)C)C(=O)N[C@@H](CC(=O)O)C(=O)N1)C(C)C)C(=O)N[C@@H](C)C(=O)NCC(=O)NCC(=O)N1CCC[C@H]1C(=O)N[C@@H](CO)C(=O)N[C@@H](CO)C(=O)NCC(=O)N[C@@H](C)C(=O)N1CCC[C@H]1C(=O)N1CCC[C@H]1C(=O)N1CCC[C@H]1C(=O)N[C@@H](CO)C(N)=O

How the values were obtained:
Assay in all cases: cell-based or functional assay
glucagon receptor = glucagon receptor (UniProt P47871 26-477, limits assumed)
Sequence of glucagon receptor (P47871 26-477 limits assumed): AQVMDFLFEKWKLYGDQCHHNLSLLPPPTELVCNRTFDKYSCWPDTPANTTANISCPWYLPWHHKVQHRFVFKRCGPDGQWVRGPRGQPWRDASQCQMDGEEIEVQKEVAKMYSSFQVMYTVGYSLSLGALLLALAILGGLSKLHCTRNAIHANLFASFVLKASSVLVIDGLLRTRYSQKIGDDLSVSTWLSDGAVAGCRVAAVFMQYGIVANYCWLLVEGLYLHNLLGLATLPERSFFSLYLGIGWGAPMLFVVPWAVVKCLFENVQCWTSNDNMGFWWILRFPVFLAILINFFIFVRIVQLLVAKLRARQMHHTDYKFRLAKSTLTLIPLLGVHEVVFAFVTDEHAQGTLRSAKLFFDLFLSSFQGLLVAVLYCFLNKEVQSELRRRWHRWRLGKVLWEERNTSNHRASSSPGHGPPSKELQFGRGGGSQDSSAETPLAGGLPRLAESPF

GLP-1 receptor = GLP-1 receptor (UniProt P43220 24-463, limits assumed)
GIP receptor = biological target: T1, GIP receptor

Binder | EC50 (glucagon receptor) [nM] | relative activity (glucagon receptor) [%] | EC50 (GLP-1 receptor) [nM] | relative activity (GLP-1 receptor) [%] | EC50 (GIP receptor) [nM] | relative activity (GIP receptor) [%]
B1 | 0.45 | 42.2 | 0.1 | 40 | 5.18 | 1.6
Y[Aib]EGTFISDYSIAMDKIHQQDFVCWLLAQKGKKNWLKHNITQ-NH2 [mt-102] | 799 | 0.02 | 98.4 | 0.06 |  | 
B2 | 3 |  | 0.04 |  |  | 
YAEGTFISDYSIAMDKIHQQDFVNWLLAQ-NH2 [mt-106] | 165 | 0.11 | 264 | 0.02 |  | 
B3 |  |  | 0.126 |  | 0.852 | 
B4 | 280 | 0.04 | 48.9 | 0.08 | 0.465 | 10.5
HSQGTFTSDYSKYLDEIHQKEFIAWLLAQ-NH2 [mt-66] | 2 | 13 | 0.13 | 38.5 |  | 
B5 |  |  | 13.1 |  | 0.391 | 
B6 |  |  | 0.025 |  | 0.665 | 
